From PMC8554105

Columns and labels:
[1] = target: T. brucei coronin coiled-coil domain (T. brucei) (UniProt Q57W63); test: SAXS
[2] = target: T. brucei coronin coiled-coil domain (T. brucei) (UniProt Q57W63); test: cross-linking
[3] = target: T. brucei coronin coiled-coil domain (T. brucei) (UniProt Q57W63); test: SEC
[4] = target: T. brucei coronin coiled-coil domain (T. brucei) (UniProt Q57W63); test: crystal structure
[5] = target: T. brucei coronin coiled-coil domain V493I–V507M (T. brucei) (UniProt Q57W63); test: crystal structure
[6] = target: T. brucei coronin coiled-coil domain V507M (T. brucei) (UniProt Q57W63); test: crystal structure

T. brucei coronin coiled-coil domain (from UniProt Q57W63 477-523) (domain or fragment)
stoichiometry N [1]: 4 | stoichiometry N [2]: 4 | stoichiometry N [3]: 4 | stoichiometry N [4]: 4

T. brucei coronin coiled-coil domain V493I–V507M (from UniProt Q57W63 477-523) (domain or fragment)
stoichiometry N [5]: 4

T. brucei coronin coiled-coil domain V507M (from UniProt Q57W63 477-523) (domain or fragment)
stoichiometry N [6]: 4
